Results from patent publication US20090286962A1 (published 2009).
Numbering of substitutions follows the chain as printed. Blank lines part the entries; values can stand above or below the binder they belong to.

Molecular target: T1, TNF (UniProt P01375 77-233)
T1 construct: also called TNF-α; Tumor Necrosis Factor-α
Test: ELISA on solid-phase TNF (screen of the affinity maturation libraries)

T1 sequence (P01375 77-233 limits assumed): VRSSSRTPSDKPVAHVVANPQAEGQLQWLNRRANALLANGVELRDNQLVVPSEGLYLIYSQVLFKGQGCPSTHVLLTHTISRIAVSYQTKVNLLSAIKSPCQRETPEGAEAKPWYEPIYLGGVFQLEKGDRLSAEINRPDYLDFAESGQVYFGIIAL

- binding result: binds
B1: Compound 100 (other)
VL: DIQMTQSPSSLSASVGDRVTITCRASQSIDSYLHWYQQKPGKAPKLLIYSASNLETGVPSRFSGSGSGTDFTLTISSLLPEDFATYYCQQVVWRPFTFGQGTKVEIKR
notes: Domain antibody (dAb); also called anti-TNF dAb Compound 100

- binding result: binds
B2: Compound 123 (other)
VL: B1 VL with S28A, L79Q
notes: Domain antibody (dAb)
